Experimental data from the supplement of paper PMC12636428.

Tested on: Saccharomyces cerevisiae
Experiment: transcriptional activation domain activity (GFP:mCherry ratio, weighted mean of sorted bins, harmonized to initial dataset scale) (arbitrary fluorescence ratio units); higher = stronger transcriptional activation
Details: beta-estradiol 1 µM; induction time 4 h
How it was run: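 The listed activation activity is a read-weighted mean of bin median fluorescence, averaged across barcodes and linearly mapped onto the initial dataset scale. Barcoded tiles, fused to an estradiol-inducible synthetic transcription factor, were integrated at URA3 in yeast diploids bearing a GFP reporter. Cells were held 4 hours at 30 °C in SC with 1 uM beta-estradiol, sorted into 8 GFP:mCherry bins, and sequenced, and tiles with fewer than 50 reads were excluded.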

Row | Sequence | transcriptional activation domain activity
1 | MLLAMGWKVATGLQTLSIFRRDGFLYFLVWINLINTMIVLFARPTLLFVTIFF | 51900
2 | LRLIWVYLYRCHESGSTVTSKLESLLKHFFPPNRLIVVPQEERLEPFVCIVHF | 53100
3 | KNNNREVEVEAREPHHKGRKNNKREVGEVEARDPHHKGRKNNKREVEVEAREP | 52900
4 | KEAKSKSKAAHDNDAKRKTTATKPKRTSARNGKAPVKSKPKKGGGNAEPSAKK | 10300
5 | GKKKKAKKAEVRKARAKASDRAKAKAKAAGPSRASKKAAAPARAKSGDGGKDK | 21600
6 | SCDNIDNAEDKCSYALEYCMDATPGLLNYIQLYYCSSVKPFVFIVLCLWLLFL | 36000
7 | EDEAPEPEAEEKKPSAKGRRASKVKQENDEEPEPEPVKQVAKAKRGSKKAVKE | 40200
8 | KGETAFVEVDEFNRRKDGKEEGGVHNSDMVIKVYLPPHFRVRIALFVLAIWAF | 23800
9 | RVFTKIRRLLIRLKKHDIHAVCAALLTYIFWPTAFLRAYCLDSIYYDPASRDK | 54100
10 | RYPPKHILISQSLILILLCFHLSFVWNKEFAPFNIESRTLFICFLGYLPILLL | 36900
11 | MAPPTSKTTPDSPDSGAPRKRRRTALACEECRDRKRKCDGVKPVCGACKTRPA | 21900
12 | AFIHRLHEVYIVAWCMKNVHFMYLHPGVPFYVLCDCTRGDTIMTVHACAEPPP | 63000
13 | GGAGKGKGAAAAAAKAAGAARDVEDIVAREPEPHHKGAGGAGKGKGAAAAAAK | 41900
14 | LGFIEIVRVCPRFGILFLCMALSFISIVVDLLSVTPVIPIGVINPFWKFAFVF | 58100
15 | VLGSEGSNLRCTRYLVVGGPPAMGREVQRFRECECTVMRMTVLIRGAVMWGCR | 57500
16 | SGGEGTRRRASGRGRGRGRGRNGRGARAARGDGEKKEGETTEAAAPTSGETPA | 34800
17 | DEEEAPEEGARGRRRKGRGKGKGKQGGGGEEEGGDGEEVEGEGEAEGEQENAG | 24000
18 | MADVSSARINIDRAKQGRGLGRVATAGCSRDRILLIRSSHSVWRAACHLWAVP | 60500
19 | NTWLQQLQDELNGSYSLTDNVNTPIDPSLSDLGVTSASPLAGNSPGLPPEEVR | 92100
20 | GEKATEAANGEGSGTEGSRRRASGRGRGRGRGRNGRGGARGGRAGDAEEKKEG | 9280
21 | MARQLYSPFFIFLYLPSCIYKNILFSSFLFFLTSLIGIFLHPFFNIVCFICQM | 58500

Row | Sequence | transcriptional activation domain activity
22 | PSEEKTVQKPDTAVAPPEDKAEPTPDATKPKEKKSRKKSKKAAEEKADGASTS | 25300
23 | ICGSVLKELEHKPFFIWFLRCVYHKVLVVLKNGPSAVVSVAEVQRPPQIGDEV | 30400
24 | SSRYDPVKSVFLPLDPMPLPRDFFFSFALILFCPSPFYTSLLSLYLISPLLFP | 60800
25 | AAAKPVATKSSSKAKTPAAASISKSKAKPVAAAARGGGKKRKVASSPAPSVVA | 9030
26 | VWFKIVWAWLYVFTSTWLLGVFLSYVKWWLLWVPWFLRSRVRCCVFLAILYIV | 73800
27 | ANPEPTDDDFHIFGGRHVFFTTDDPWLIFLGFILQHLDRLLNRMLFWWCVEWV | 56900
28 | SKNDSASDEEEEGDDLPSAYCTVILNHQKVFKTRTKPKNSKPFFNAGCERFIP | 57400
29 | FGWHIYKKIGADLAMRGKRSLSPLISSSPRLADRYKMYQIFMMLLKLDFFFFL | 77900
30 | LFFLSFFLGLFLFFFSLSLLLVPSSFFFLVFCLFLSFFFILSFFPRFLFFFFF | 39700
31 | IAAAGSNAASGHPDAKRAKTGASGSRAGSPSGSPPGSKPASRAGSPGAPRVPA | 16900
32 | MSRLSIYVALLLLESICICWRGWIAPRHVAMESVQINFKTGRFLVYFMFPIKA | 32000
33 | HWRAFVTGGGSAFWLLAYGIFYWASRLSLDSFTSVILYLGYLVLLALMDFLVT | 20300
34 | SSACASRSSPSSSCGSPSTSCAGAAARASPPRRCSARPCPRRRRAASPTASTS | 10100
35 | MDESDGERGGGYGVFFLLFFFFFFLSFLFSFWLFLLFTFVLISFFGAITLLKE | 25600
36 | MPSFTLAWPDRAYFYSLLVVSLLSAKFLHLFSHLTALPIFLFLLYFPTFVFLD | 76700
37 | MFACPYLGLLCLSVTSMPYPFSQLFQPFISPRFCPECAPFSFFLHSFLGFHLT | 52200
38 | MPSFTFAWPDRAYFYSLLVVSLLSAKFLHLFSHLTALPIFLFLLYFPTFVFLD | 71900
39 | ITNFSHPVSWLGTISPLSSLISSSLSFLSEFFSLFPLFFSFFLLFSPSISSWF | 67500
40 | WLSHSQKKHCELCKTPFRFTKLYAPNMPKALPTHVFLSHVAKYILRNLLVWLR | 81200
41 | LVVFVFLILVVFVFLILVVFVFLILLILAFFVFLILLALLIFLILLVFLVFLV | 30600
42 | VRVVQLSLSLFIARFVTALVLPFIAIVTKWLVIGRYRPGIFPLWGTYYLRWWF | 45000

Row | Sequence | transcriptional activation domain activity
43 | KSKKKRRMEEEEEGDEEEEEEQREREEERGERGEREARVRREGKAKKSASSRD | 17300
44 | LMGLDELHLRVLSSSSDDPQERLNADKVLKLLTKRRHWVLVVLLLGNVIVNES | 35800
45 | MAQTTPESASSSQSTLARGKACLRCRKRKMRCDGAKPACGQCVKAHKPDACQY | 24400
46 | ASEPVKEETKPPVEEHASEPVEEETKPVEEEIKPVEEHASEPVKEETKPAEEH | < 6570
47 | VQGTTHGRILIQAGKEIWTQELLLPYVYFILTLNPTIHTWERIKKITGYVFRA | 64200
48 | NLLMRPRYPPNQFISKISLRLILTDLPYMIFVFSGIFIMLGLFYPIFYLQLYA | 50400
49 | EDASAGEGEEKKKRKKKKVEASSDEEGSGSDGSKRKSQSKRTKSSKKGRSDNG | 40700
50 | PDRPCYSAIVRISTSRLHFYECKLYAHAFFQGLRYFMYHWRWTTTLVLMSLFL | 47200
51 | FDTLLSFLLFSLSLIFFLSFLPLFCQRYFFSSFLNLVFLAFWLCCYCCCCSRG | 31700
52 | MYECLAECEFLARLYFFLLHCCVYCTIIVYIFFLLVNCYAGVVSRLLELQTLR | 41100
53 | MHTHAVTRSLFLYFLLNFFFIFFLLLEGFGLLLDFSFFFVLFRLDSLSLLFVF | 76000
54 | LGTEVVTLEDEIYYIWVRYYSIALLVFDTPNSHLCHSRNNLGQLVAVINVFLF | 46300
55 | APQGEEKAPAPRRSKRAKTAAPSDQETEETATKVVAGKAGAGKGKAVAAKAAA | 51800
56 | AINVSFLHWIYIFHATGKHKYASQLARYLKNLHEVHPPELSQWLIEVFRKCHI | 61400
57 | QLNLVNHFYQFSLHFFLDIFDYILHHNPNLKGVTDYPTRRAILLNDLFLVVYR | 58200
58 | TRQYIINILFGIMTVENFDLEDIIYFYMFIARNLPKYPQHIMLPGTSLHQVLV | 54100
59 | MPGVTGHHLTSWYWLSFIFIFLFYFALLVVFIWVIFSYLFTHLIRFGHAVVVS | 29000
60 | RRWQWYWGCFVCACALISLFLNVEVDRYRVQQLPLIVTSFFWYLMCMGTTCVV | 44600
61 | KSGCGYILGHINIFQPINWILVTSSKVFPIDYILFLLLVMFFFSASIVGIATV | 34400
